What was measured:
[1] = biological target: NaK2CNG, mutant of NaK with the selectivity filter substituted to TVGDTPP, lacking the first 19 residues (UniProt Q81HW2); assay: crystal structure; MicroED (electron diffraction) of single microcrystals grown in Tris pH 8.0 and 60-80% MPD; protein in 0.2% DM with 150 mM NaCl (NaK) or 150 mM KCl (NaK2CNG); space group I4, two monomers in the asymmetric unit, tetramers generated by crystal symmetry
[2] = biological target: the molecule itself; assay: as above

Row | Molecule | stoichiometry N [1] | stoichiometry N [2]
1 | NaK2CNG, mutant of NaK with the selectivity filter substituted to TVGDTPP, lacking the first 19 residues (from UniProt Q81HW2 20-114) (natural protein) | 4 | 
2 | NaK, non-selective ion channel, lacking the first 19 residues (natural protein, UniProt Q81HW2 20-114, looked up, NaK non-selective cation channel, construct lacking the first 19 residues; model for molecular replacement was PDB 3E89; Tetrameric channel; in space group I4 the tetramer is generated from one monomer by crystal symmetry, and the two monomers of the asymmetric unit give two tetramers; also called NaK channel) KDKEFQVLFVLTILTLISGTIFYSTVEGLRPIDALYFSVVTLTTVGDGNFSPQTDFGKIFTILYIFIGIGLVFGFIHKLAVNVQLPSILSNRKKE |  | 4

Source: article PMC12376597, “High‐Throughput MicroED for Probing Ion Channel Dynamics” (Advanced Science, 2025)
